Values of other authors, collected in patent US20220162649A1, “NOVEL NUCLEIC ACID MODIFIERS” (THE BROAD INSTITUTE, INC., priority 2019, published 2022).

tested on: target DNA; conditions: SaCas9 mutants; cited from earlier work

Molecule | DNA cleavage activity, in words
SaCas9 T787A: SaCas9 phosphate lock loop mutant (protein, UniProt J7RUA5 1-1053, looked up, variant T787A) CRISPR-associated …: MKRNYILGLDIGITSVGYGIIDYETRDVIDAGVRLFKEANVENNEGRRSKRGARRLKRRRRHRIQRVKKLLFDYNLLTDHSELSGINPYEARVKGLSQKLSEEEFSAALLHLAKRRGVHNVNEVEEDTGNELSTKEQISRNSKALEEKYVAELQLERLKKDGEVRGSINRFKTSDYVKEAKQLLKVQKAYHQLDQSFIDTYIDLLETRRTYYEGPGEGSPFGWKDIKEWYEMLMGHCTYFPEELRSVKYAYNADLYNALNDLNNLVITRDENEKLEYYEKFQIIENVFKQKKKPTLKQIAKEILVNEEDIKGYRVTSTGKPEFTNLKVYHDIKDITARKEIIENAELLDQIAKILTIYQSSEDIQEELTNLNSELTQEEIEQISNLKGYTGTHNLSLKAINLILDELWHTNDNQIAIFNRLKLVPKKVDLSQQKEIPTTLVDDFILSPVVKRSFIQSIKVINAIIKKYGLPNDIIIELAREKNSKDAQKMINEMQKRNRQTNERIEEIIRTTGKENAKYLIEKIKLHDMQEGKCLYSLEAIPLEDLLNNPFNYEVDHIIPRSVSFDNSFNNKVLVKQEENSKKGNRTPFQYLSSSDSKISYETFKKHILNLAKGKGRISKTKKEYLLEERDINRFSVQKDFINRNLVDTRYATRGLMNLLRSYFRVNNLDVKVKSINGGFTSFLRRKWKFKKERNKGYKHHAEDALIIANADFIFKEWKKLDKAKKVMENQMFEEKQAESMPEIETEQEYKEIFITPHQIKHIKDFKDYKYSHRVDKKPNRELINDALYSTRKDDKGNTLIVNNLNGLYDKDNDKLKKLINKSPEKLLMYHHDPQTYQKLKLIMEQYGDEKNPLYKYYEETGNYLTKYSKKDNGPVIKKIKYYGNKLNAHLDITDDYPNSRNKVVKLSLKPYRFDVYLDNGVYKFVTVKNLDVIKKENYYEVNSKCYEEAKKLKKISNQAEFIASFYNNDLIKINGELYRVIGVNNDLLNRIEVNMIDITYREYLENMNDKRPPRIIKTIASKTQSIKKYSTDILGNLYEVKSKKHPQIIKKG | reduced DNA cleavage activity
E477A: SaCas9 RuvC catalytic residue mutant (protein, UniProt J7RUA5 1-1053, looked up, variant E477A) CRISPR-associated …: MKRNYILGLDIGITSVGYGIIDYETRDVIDAGVRLFKEANVENNEGRRSKRGARRLKRRRRHRIQRVKKLLFDYNLLTDHSELSGINPYEARVKGLSQKLSEEEFSAALLHLAKRRGVHNVNEVEEDTGNELSTKEQISRNSKALEEKYVAELQLERLKKDGEVRGSINRFKTSDYVKEAKQLLKVQKAYHQLDQSFIDTYIDLLETRRTYYEGPGEGSPFGWKDIKEWYEMLMGHCTYFPEELRSVKYAYNADLYNALNDLNNLVITRDENEKLEYYEKFQIIENVFKQKKKPTLKQIAKEILVNEEDIKGYRVTSTGKPEFTNLKVYHDIKDITARKEIIENAELLDQIAKILTIYQSSEDIQEELTNLNSELTQEEIEQISNLKGYTGTHNLSLKAINLILDELWHTNDNQIAIFNRLKLVPKKVDLSQQKEIPTTLVDDFILSPVVKRSFIQSIKVINAIIKKYGLPNDIIIALAREKNSKDAQKMINEMQKRNRQTNERIEEIIRTTGKENAKYLIEKIKLHDMQEGKCLYSLEAIPLEDLLNNPFNYEVDHIIPRSVSFDNSFNNKVLVKQEENSKKGNRTPFQYLSSSDSKISYETFKKHILNLAKGKGRISKTKKEYLLEERDINRFSVQKDFINRNLVDTRYATRGLMNLLRSYFRVNNLDVKVKSINGGFTSFLRRKWKFKKERNKGYKHHAEDALIIANADFIFKEWKKLDKAKKVMENQMFEEKQAESMPEIETEQEYKEIFITPHQIKHIKDFKDYKYSHRVDKKPNRELINDTLYSTRKDDKGNTLIVNNLNGLYDKDNDKLKKLINKSPEKLLMYHHDPQTYQKLKLIMEQYGDEKNPLYKYYEETGNYLTKYSKKDNGPVIKKIKYYGNKLNAHLDITDDYPNSRNKVVKLSLKPYRFDVYLDNGVYKFVTVKNLDVIKKENYYEVNSKCYEEAKKLKKISNQAEFIASFYNNDLIKINGELYRVIGVNNDLLNRIEVNMIDITYREYLENMNDKRPPRIIKTIASKTQSIKKYSTDILGNLYEVKSKKHPQIIKKG | almost no DNA cleavage activities
D10A: SaCas9 RuvC catalytic residue mutant (protein, UniProt J7RUA5 1-1053, looked up, variant D10A) CRISPR-associated …: MKRNYILGLAIGITSVGYGIIDYETRDVIDAGVRLFKEANVENNEGRRSKRGARRLKRRRRHRIQRVKKLLFDYNLLTDHSELSGINPYEARVKGLSQKLSEEEFSAALLHLAKRRGVHNVNEVEEDTGNELSTKEQISRNSKALEEKYVAELQLERLKKDGEVRGSINRFKTSDYVKEAKQLLKVQKAYHQLDQSFIDTYIDLLETRRTYYEGPGEGSPFGWKDIKEWYEMLMGHCTYFPEELRSVKYAYNADLYNALNDLNNLVITRDENEKLEYYEKFQIIENVFKQKKKPTLKQIAKEILVNEEDIKGYRVTSTGKPEFTNLKVYHDIKDITARKEIIENAELLDQIAKILTIYQSSEDIQEELTNLNSELTQEEIEQISNLKGYTGTHNLSLKAINLILDELWHTNDNQIAIFNRLKLVPKKVDLSQQKEIPTTLVDDFILSPVVKRSFIQSIKVINAIIKKYGLPNDIIIELAREKNSKDAQKMINEMQKRNRQTNERIEEIIRTTGKENAKYLIEKIKLHDMQEGKCLYSLEAIPLEDLLNNPFNYEVDHIIPRSVSFDNSFNNKVLVKQEENSKKGNRTPFQYLSSSDSKISYETFKKHILNLAKGKGRISKTKKEYLLEERDINRFSVQKDFINRNLVDTRYATRGLMNLLRSYFRVNNLDVKVKSINGGFTSFLRRKWKFKKERNKGYKHHAEDALIIANADFIFKEWKKLDKAKKVMENQMFEEKQAESMPEIETEQEYKEIFITPHQIKHIKDFKDYKYSHRVDKKPNRELINDTLYSTRKDDKGNTLIVNNLNGLYDKDNDKLKKLINKSPEKLLMYHHDPQTYQKLKLIMEQYGDEKNPLYKYYEETGNYLTKYSKKDNGPVIKKIKYYGNKLNAHLDITDDYPNSRNKVVKLSLKPYRFDVYLDNGVYKFVTVKNLDVIKKENYYEVNSKCYEEAKKLKKISNQAEFIASFYNNDLIKINGELYRVIGVNNDLLNRIEVNMIDITYREYLENMNDKRPPRIIKTIASKTQSIKKYSTDILGNLYEVKSKKHPQIIKKG | almost no DNA cleavage activities
H701A: SaCas9 RuvC catalytic residue mutant (protein, UniProt J7RUA5 1-1053, looked up, variant H701A) CRISPR-associated …: MKRNYILGLDIGITSVGYGIIDYETRDVIDAGVRLFKEANVENNEGRRSKRGARRLKRRRRHRIQRVKKLLFDYNLLTDHSELSGINPYEARVKGLSQKLSEEEFSAALLHLAKRRGVHNVNEVEEDTGNELSTKEQISRNSKALEEKYVAELQLERLKKDGEVRGSINRFKTSDYVKEAKQLLKVQKAYHQLDQSFIDTYIDLLETRRTYYEGPGEGSPFGWKDIKEWYEMLMGHCTYFPEELRSVKYAYNADLYNALNDLNNLVITRDENEKLEYYEKFQIIENVFKQKKKPTLKQIAKEILVNEEDIKGYRVTSTGKPEFTNLKVYHDIKDITARKEIIENAELLDQIAKILTIYQSSEDIQEELTNLNSELTQEEIEQISNLKGYTGTHNLSLKAINLILDELWHTNDNQIAIFNRLKLVPKKVDLSQQKEIPTTLVDDFILSPVVKRSFIQSIKVINAIIKKYGLPNDIIIELAREKNSKDAQKMINEMQKRNRQTNERIEEIIRTTGKENAKYLIEKIKLHDMQEGKCLYSLEAIPLEDLLNNPFNYEVDHIIPRSVSFDNSFNNKVLVKQEENSKKGNRTPFQYLSSSDSKISYETFKKHILNLAKGKGRISKTKKEYLLEERDINRFSVQKDFINRNLVDTRYATRGLMNLLRSYFRVNNLDVKVKSINGGFTSFLRRKWKFKKERNKGYKHAAEDALIIANADFIFKEWKKLDKAKKVMENQMFEEKQAESMPEIETEQEYKEIFITPHQIKHIKDFKDYKYSHRVDKKPNRELINDTLYSTRKDDKGNTLIVNNLNGLYDKDNDKLKKLINKSPEKLLMYHHDPQTYQKLKLIMEQYGDEKNPLYKYYEETGNYLTKYSKKDNGPVIKKIKYYGNKLNAHLDITDDYPNSRNKVVKLSLKPYRFDVYLDNGVYKFVTVKNLDVIKKENYYEVNSKCYEEAKKLKKISNQAEFIASFYNNDLIKINGELYRVIGVNNDLLNRIEVNMIDITYREYLENMNDKRPPRIIKTIASKTQSIKKYSTDILGNLYEVKSKKHPQIIKKG | almost no DNA cleavage activities
D704A: SaCas9 RuvC catalytic residue mutant (protein, UniProt J7RUA5 1-1053, looked up, variant D704A) CRISPR-associated …: MKRNYILGLDIGITSVGYGIIDYETRDVIDAGVRLFKEANVENNEGRRSKRGARRLKRRRRHRIQRVKKLLFDYNLLTDHSELSGINPYEARVKGLSQKLSEEEFSAALLHLAKRRGVHNVNEVEEDTGNELSTKEQISRNSKALEEKYVAELQLERLKKDGEVRGSINRFKTSDYVKEAKQLLKVQKAYHQLDQSFIDTYIDLLETRRTYYEGPGEGSPFGWKDIKEWYEMLMGHCTYFPEELRSVKYAYNADLYNALNDLNNLVITRDENEKLEYYEKFQIIENVFKQKKKPTLKQIAKEILVNEEDIKGYRVTSTGKPEFTNLKVYHDIKDITARKEIIENAELLDQIAKILTIYQSSEDIQEELTNLNSELTQEEIEQISNLKGYTGTHNLSLKAINLILDELWHTNDNQIAIFNRLKLVPKKVDLSQQKEIPTTLVDDFILSPVVKRSFIQSIKVINAIIKKYGLPNDIIIELAREKNSKDAQKMINEMQKRNRQTNERIEEIIRTTGKENAKYLIEKIKLHDMQEGKCLYSLEAIPLEDLLNNPFNYEVDHIIPRSVSFDNSFNNKVLVKQEENSKKGNRTPFQYLSSSDSKISYETFKKHILNLAKGKGRISKTKKEYLLEERDINRFSVQKDFINRNLVDTRYATRGLMNLLRSYFRVNNLDVKVKSINGGFTSFLRRKWKFKKERNKGYKHHAEAALIIANADFIFKEWKKLDKAKKVMENQMFEEKQAESMPEIETEQEYKEIFITPHQIKHIKDFKDYKYSHRVDKKPNRELINDTLYSTRKDDKGNTLIVNNLNGLYDKDNDKLKKLINKSPEKLLMYHHDPQTYQKLKLIMEQYGDEKNPLYKYYEETGNYLTKYSKKDNGPVIKKIKYYGNKLNAHLDITDDYPNSRNKVVKLSLKPYRFDVYLDNGVYKFVTVKNLDVIKKENYYEVNSKCYEEAKKLKKISNQAEFIASFYNNDLIKINGELYRVIGVNNDLLNRIEVNMIDITYREYLENMNDKRPPRIIKTIASKTQSIKKYSTDILGNLYEVKSKKHPQIIKKG | almost no DNA cleavage activities
